Source: patent US20220089758A1 (REVMAB BIOSCIENCES USA, published 2022)
Changes are numbered by the printed parent chain.

B1: Antibody clone 5 (antibody, V domains shown)
VH: QSVKESGGGLFKPTDTLTLTCTVSGFSLSSNAISWVRQAPGKGLEWIGIIYASGDTYYASWAKGRFTISKTSSTTVDLKMTSLTTEGTATYFCARGYTTLYFWGPGTLVTVSS
VL: QIVMTQTPASVSAAVGGTVTIKCQASESISTRLAWYQQKPGQPPKLLIYSASTLPSGVPSRFSGSGSGTDFTLTISGVQCDDAATYYCQGGYSSGAGTAFGGGTEVVVK
notes: Rabbit monoclonal antibody; also called 5H2/5L2
B2: Antibody clone 6 (antibody, V domains shown)
VH: QSLEESGGRLVTPGTPLTLTCTASGFDFSRYHMCWVRQAPGKGLEWIGIIYVSDNTYYATWAKGRFTISRTSTTVDLKITSPTTEDTATYFCVRVGSFWSSKLWGPGTLVTVSS
VL: DVVMTQTPASVSEPVGGTVTINCQASENIYSSLAWYQQKPGQPPKLLIYEASNLESGVSSRFSGSGSGTEFTLTISDLECADAATYYCQSTYFGNSYVFAFGGGTEVVVK
notes: Rabbit monoclonal antibody; also called 6H2/6L2
B3: APX005M (antibody, V domains shown)
VH: QVQLVESGGGVVQPGRSLRLSCAASGFSFSSTYVCWVRQAPGKGLEWIACIYTGDGTNYSASWAKGRFTISKDSSKNTVYLQMNSLRAEDTAVYFCARPDITYGFAINFWGPGTLVTVSS
VL: DIQMTQSPSSLSASVGDRVTIKCQASQSISSRLAWYQQKPGKPPKLLIYRASTLASGVPSRFSGSGSGTDFTLTISSLQPEDVATYYCQCTGYGISWPIGGGTKVEIK
B4: Antibody clone 151 (antibody, V domains shown)
VH: QSVEESGGRLVTPGTPLTLTCTVSGFSLSSNAISWVRQAPGKGLEWIGVIDAGGSTYFASWAKGLFTISKTSSTTVDLQMTSLTTEDTATYFCARGWSRHDFWGPGTLVTVSS
VL: DVVMTQTPASVSEPVGGTVTIKCQASQSISNILAWYQQKPGQPPRLLIYSASTLASGVSSRFKASGSGTEFTLTISDLECADAATYYCQGYDSTVGVGAFGGGTEVVVK
notes: Rabbit monoclonal antibody; also called 151H1/151L1
B5: Antibody clone 166 (antibody, V domains shown)
VH: B2 VH with F28L, C34N, N55D, T56S, T60S, R70K, T74A, V93A, F98V
VL: B2 VL with N22K, S31N, S32N, E50R, N53T, S59P, S63K, N95G
notes: Rabbit monoclonal antibody; also called 166H2/166L1
B6: Antibody clone 233 (antibody, V domains shown)
VH: QEQLVESGGGLVQPEGSLTLTCTASGFSFSYYSWACWVRQAPGKGLEWIACIDGGGSRATYYASWAKGRFTISTTSSTTVTLQMTSLTAADTATYFCSRSDYNGYISYFDLWGPGTLVTVSS
VL: AFELTQTPSSVEAAVGGTVTINCQASQSIRSDLAWYQQKPGQPPKLLIYKASTLASGVPSRFRGSGSGTEYTLTISDLECADAATYYCQSYYHSSSTAFGGGTEVVVK
notes: Rabbit monoclonal antibody; also called 233H1/233L1
B7: Antibody clone 5-z (antibody, V domains shown)
VH: EVQLVESGGGLVQPGGSLRLSCAASGFSLSSNAISWVRQAPGKGLEWVGIIYASGDTYYASWAKGRFTISRDNSKNTLYLQMNSLRAEDTAVYYCARGYTTLYFWGQGTLVTVSS
VL: DIQMTQSPSSVSASVGDRVTITCQASESISTRLAWYQQKPGKAPKLLIYSASTLPSGVPSRFSGSGSGTDFTLTISSLQPEDFATYYCQGGYSSGAGTAFGGGTKVEIK
notes: Humanized antibody based on clone 5; also called 5H2-z/5L2-z
B8: Antibody clone 6-z (antibody, V domains shown)
VH: EVQLVESGGGLVQPGGSLRLSCAASGFDFSRYHMSWVRQAPGKGLEWVGIIYVSDNTYYATWAKGRFTISRDNSKNTLYLQMNSLRAEDTAVYYCVRVGSFWSSKLWGQGTLVTVSS
VL: DIQMTQSPSTLSASVGDRVTITCQASENIYSSLAWYQQKPGKAPKLLIYEASNLESGVPSRFSGSGSGTEFTLTISSLQPDDFATYYCQSTYFGNSYVFAFGGGTKVEIK
notes: Humanized antibody based on clone 6; also called 6H2-z/6L2-z

biological target: T1, CD40 protein displayed on cell surface (UniProt P25942 21-277, limits assumed); assay: flow cytometry on HEKBlue CD40L reporter cells, fluorescent secondary antibody, median fluorescence
T1 construct: whole, on cells; One entry for cell-surface full-length CD40 in all cell assays; also called CD40 on HEKBlue CD40L reporter cells; CD40-expressing cell
T1 sequence (P25942 21-277 limits assumed): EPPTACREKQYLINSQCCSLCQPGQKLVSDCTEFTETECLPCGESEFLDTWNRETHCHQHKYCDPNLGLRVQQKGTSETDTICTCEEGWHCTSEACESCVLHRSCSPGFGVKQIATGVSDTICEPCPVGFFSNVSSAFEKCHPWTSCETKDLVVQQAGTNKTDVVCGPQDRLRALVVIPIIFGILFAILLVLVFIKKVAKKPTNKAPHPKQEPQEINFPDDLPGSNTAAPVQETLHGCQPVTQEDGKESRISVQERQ
Source text: (§1) HEKBlue CD40L reporter cells were harvested and stained with anti-CD40 and fluorescent secondary antibodies. Antibodies binding are shown in median fluorescence intensity.

Row | Binder | EC50 [µg/mL]
1 | B1 | 0.0541
2 | B2 | 0.0945
3 | B3 | 0.123

biological target: T1, CD40 protein displayed on cell surface; assay: cell-based or functional assay

Row | Binder | EC50 in activating B cell assessed by CD80 expression (CD19+ cells, flow cytometry) [nM] | EC50 in activating B cell assessed by CD86 expression (CD19+ cells, flow cytometry) [nM] | EC50 in activating MoDC assessed by CD86 expression [nM] | EC50 in activating monocyte derived dendritic cell (MoDC) assessed by CD80 expression [nM] | EC50 of CD40 activation, SEAP activity (Quanti-Blue, absorbance at 650 nm) of HEKBlue CD40L reporter cells [nM]
4 | B1 | 0.0027 | 0.0015 | 1.3 | 0.74 | 0.34
5 | B2 | 0.17 | 0.14 | 22 | 29 | 8
6 | B3 | 0.41 | 0.021 | 1.7 | 1.6 | 10

biological target: T2, recombinant CD40 ECD-Fc fusion protein (UniProt P25942 21-193, limits assumed, biotinylated (site not stated)); assay: BLI (Octet), biotinylated CD40 ECD-Fc captured on streptavidin probe, antibody in solution
T2 construct: extracellular domain; also called biotinylated CD40 ECD-Fc; not shown: Fc
T2 sequence (P25942 21-193 limits assumed): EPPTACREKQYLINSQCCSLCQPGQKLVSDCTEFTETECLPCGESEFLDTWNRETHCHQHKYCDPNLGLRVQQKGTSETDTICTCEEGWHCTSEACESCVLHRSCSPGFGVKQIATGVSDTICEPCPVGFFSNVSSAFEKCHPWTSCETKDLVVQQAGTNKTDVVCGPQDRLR
Experimental: Binding affinity to recombinant CD40 ECD-Fc fusion protein were determined using Bio-Layer Interferometry (BLI) on Octet system. Briefly, biotinylated CD40 ECD-Fc were captured by streptavidin probe and the antibody association/dissociation were measured with light interferometry in realtime. KD were then calculated by Kₒₙ and Koff.

Row | Binder | Kd [nM]
7 | B1 | 0.00604
8 | B2 | 0.377
9 | B3 | 0.041
10 | B4 | 0.084
11 | B5 | 0.42
12 | B6 | 0.012

biological target: T1, CD40 protein displayed on cell surface; assay: flow cytometry on HEKBlue CD40L reporter cells, fluorescent secondary antibody, median fluorescence intensity
Source text: as §1

Row | Binder | EC50 [nM]
13 | B1 | 0.36
14 | B2 | 0.63
15 | B3 | 0.82

biological target: T1, CD40 protein displayed on cell surface; assay: binding to CD40-expressing cell; method not described

Row | Binder | binding result
16 | B7 | binds
17 | B8 | binds
